The target of series [1] is AtBAM2 with the Ndel1 truncation (Arabidopsis thaliana) (UniProt O65258). Put plainly: small-angle X-ray scattering.
Series [2] deals with the molecule itself. Put plainly: small-angle X-ray scattering.

The stoichiometry N is the number of molecules, sites or subunits per partner or assembly.

On to “AtBAM2 with the Ndel1 truncation (from UniProt O65258 86-542) (domain or fragment)”, for which, in series [1], the stoichiometry N stood at 4.

B1: Arabidopsis thaliana β-amylase2 (AtBAM2), wild type (enzyme, UniProt O65258 56-542, looked up)
chain: AESTEEDRVPIDDDDDSTDQLVDEEIVHFEERDFAGTACVPVYVMLPLGVIDMNSEVVEPEELLDQLRTLKSVNVDGVMVDCWWGIVESHTPQVYNWSGYKKLFQMIRELGLKIQVVMSFHECGGNVGDDVHIQIPEWVREIGQSNPDIYFTDSAGRRNTECLTWGIDKQRVLRGRTALEVYFDYMRSFRVEFDEFFEEKIIPEIEVGLGPCGELRYPSYPAQFGWKYPGIGEFQCYDKYLMNSLKEAAEVRGHSFWGRGPDNTETYNSTPHGTGFFRDGGDYDSYYGRFFLNWYSRVLIDHGDRVLAMANLAFEGTCIAAKLSGIHWWYKTASHAAELTAGFYNSSNRDGYGPIAAMFKKHDAALNFTCVELRTLDQHEDFPEALADPEGLVWQVLNAAWDASIPVASENALPCYDREGYNKILENAKPLTDPDGRHLSCFTYLRLNPTLMESQNFKEFERFLKRMHGEAVPDLGLAPGTQETNPE
For B1, the “stoichiometry N” value in series [2] turned out to be 4.

Values taken from paper doi:10.1101/751602 (bioRxiv, 2019).
